Measured values taken from patent US20220387555A1 (LUDWIG INSTITUTE FOR CANCER RESEARCH, published 2022).
Numbering of substitutions follows the chain as printed.

Target: T1, human PDL1 protein (human, UniProt Q9NZQ7 19-238, limits assumed)
T1 construct: Plate-coated protein
Assay: titration ELISA, plates coated with human PD-L1, soluble monomeric decoy, anti-His tag detection

T1 sequence (Q9NZQ7 19-238 limits assumed): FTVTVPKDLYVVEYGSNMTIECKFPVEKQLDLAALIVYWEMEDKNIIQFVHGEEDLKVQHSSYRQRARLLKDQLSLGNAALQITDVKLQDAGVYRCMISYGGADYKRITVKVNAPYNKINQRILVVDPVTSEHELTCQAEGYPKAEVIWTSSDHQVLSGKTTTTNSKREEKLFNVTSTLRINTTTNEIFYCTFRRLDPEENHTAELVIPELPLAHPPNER

B1: PD1_4XMUT_M70 (with 6xHis) (receptor)
chain: MASDSPDRPWNPPTFSPALLVVTEGDNATFTCSFSNTSESFVLNWYRMSPSNQDDRLAAFPEDRSQPGQDARFRVTQLPNGRDFHMSVVRARRNDSGTYFCGAISLAPKAKIKESLRAELRVTERRALEHHHHHH
notes: also called soluble monomeric PD1 decoy variant
- fold better binding than the WT PD1 decoy: 10 fold

B2: PD1_6XDM (with 6xHis) (receptor)
chain: B1 chain with D54V, A110W
notes: also called PD-1 decoy variant 6XDM; soluble monomeric PD1 decoy variant
- fold better binding than the WT PD1 decoy: ~7.5 fold
